Measurements taken from patent publication US20120058906A1.
Each block holds one substance with its values, some of them ahead of it.

Experiments:
[1] = target: rHuman EGF R/Fc Chimera, CF (R&D Systems Cat#344-ER) (human) (UniProt P00533); assay: ECL (MSD multi-spot), Fab 232.5 nM; blank 460
[2] = target: rHuman IGF-1 sR (IGF-1 sR), CF (R&D Systems Cat#391-GR) (human) (UniProt P08069); assay: ECL (MSD multi-spot), Fab 232.5 nM; blank 460
[3] = target: rHuman P-Cadherin/Fc Chimera, CF (R&D Systems Cat#861-PC) (human) (UniProt P22223); assay: ECL (MSD multi-spot), Fab 232.5 nM; blank 460
[4] = target: rHuman EGF R/Fc Chimera, CF (R&D Systems Cat#344-ER) (human) (UniProt P00533); assay: ECL (MSD multi-spot), Fab 930 nM; blank 1206
[5] = target: rHuman IGF-1 sR (IGF-1 sR), CF (R&D Systems Cat#391-GR) (human) (UniProt P08069); assay: ECL (MSD multi-spot), Fab 930 nM; blank 1206
[6] = target: rHuman P-Cadherin/Fc Chimera, CF (R&D Systems Cat#861-PC) (human) (UniProt P22223); assay: ECL (MSD multi-spot), Fab 930 nM; blank 1206
[7] = target: rHuman EGF R/Fc Chimera, CF (R&D Systems Cat#344-ER) (human) (UniProt P00533); assay: ECL (MSD multi-spot), Fab 58.1 nM; blank 225
[8] = target: rHuman IGF-1 sR (IGF-1 sR), CF (R&D Systems Cat#391-GR) (human) (UniProt P08069); assay: ECL (MSD multi-spot), Fab 58.1 nM; blank 225
[9] = target: rHuman P-Cadherin/Fc Chimera, CF (R&D Systems Cat#861-PC) (human) (UniProt P22223); assay: ECL (MSD multi-spot), Fab 58.1 nM; blank 225
[10] = target: rHuman EGF R/Fc Chimera, CF (R&D Systems Cat#344-ER) (human) (UniProt P00533); assay: ECL (MSD multi-spot), Fab 14.5 nM; blank 117
[11] = target: rHuman IGF-1 sR (IGF-1 sR), CF (R&D Systems Cat#391-GR) (human) (UniProt P08069); assay: ECL (MSD multi-spot), Fab 14.5 nM; blank 117
[12] = target: rHuman P-Cadherin/Fc Chimera, CF (R&D Systems Cat#861-PC) (human) (UniProt P22223); assay: ECL (MSD multi-spot), Fab 14.5 nM; blank 117
[13] = target: Recombinant Human DLL4 (R&D Systems Cat#1506-D4/CF) (human) (UniProt Q9NR61); assay: MSD ECL multi-spot plate; Fab 98.1 nM; blank spot 210
[14] = target: rHuman EGF R/Fc Chimera, CF (R&D Systems Cat#344-ER) (human) (UniProt P00533); assay: as above
[15] = target: rHuman Notch-1/Fc Chimera, CF (R&D Systems Cat#3647-TK) (human) (UniProt P46531); assay: as above
[16] = target: Recombinant Human DLL4 (R&D Systems Cat#1506-D4/CF) (human) (UniProt Q9NR61); assay: MSD ECL multi-spot plate; Fab 1570 nM; blank spot 866
[17] = target: rHuman EGF R/Fc Chimera, CF (R&D Systems Cat#344-ER) (human) (UniProt P00533); assay: as above
[18] = target: rHuman Notch-1/Fc Chimera, CF (R&D Systems Cat#3647-TK) (human) (UniProt P46531); assay: as above
[19] = target: Recombinant Human DLL4 (R&D Systems Cat#1506-D4/CF) (human) (UniProt Q9NR61); assay: MSD ECL multi-spot plate; Fab 392.5 nM; blank spot 338
[20] = target: rHuman EGF R/Fc Chimera, CF (R&D Systems Cat#344-ER) (human) (UniProt P00533); assay: as above
[21] = target: rHuman Notch-1/Fc Chimera, CF (R&D Systems Cat#3647-TK) (human) (UniProt P46531); assay: as above
[22] = target: Recombinant Human DLL4 (R&D Systems Cat#1506-D4/CF) (human) (UniProt Q9NR61); assay: MSD ECL multi-spot plate; Fab […]; blank spot 149
[23] = target: rHuman EGF R/Fc Chimera, CF (R&D Systems Cat#344-ER) (human) (UniProt P00533); assay: MSD ECL multi-spot plate; Fab […]; blank spot 149
[24] = target: rHuman Notch-1/Fc Chimera, CF (R&D Systems Cat#3647-TK) (human) (UniProt P46531); assay: MSD ECL multi-spot plate; Fab […]; blank spot 149
[25] = target: rHuman CD44/Fc Chimera, CF (R&D Systems Cat#3660-CD) (human) (UniProt P16070); assay: ECL (MSD multi-spot), antigen spotted on plate; Fab 1.6 nM; blank 648
[26] = target: rHuman Erythropoietin R/Fc Chimera, CF (R&D Systems Cat#963-ER) (human) (UniProt P19235); assay: as above
[27] = target: rHuman Notch-1/Fc Chimera, CF (R&D Systems Cat#3647-TK) (human) (UniProt P46531); assay: as above
[28] = target: rHuman ErbB2/Fc Chimera, CF (R&D Systems Cat#1129-ER) (human) (UniProt P04626); assay: as above
[29] = target: rHuman P-Cadherin/Fc Chimera, CF (R&D Systems Cat#861-PC) (human) (UniProt P22223); assay: as above
[30] = target: rHuman CD44/Fc Chimera, CF (R&D Systems Cat#3660-CD) (human) (UniProt P16070); assay: ECL (MSD multi-spot), antigen spotted on plate; Fab 1000 nM; blank 2142
[31] = target: rHuman Erythropoietin R/Fc Chimera, CF (R&D Systems Cat#963-ER) (human) (UniProt P19235); assay: as above
[32] = target: rHuman Notch-1/Fc Chimera, CF (R&D Systems Cat#3647-TK) (human) (UniProt P46531); assay: as above
[33] = target: rHuman ErbB2/Fc Chimera, CF (R&D Systems Cat#1129-ER) (human) (UniProt P04626); assay: as above
[34] = target: rHuman P-Cadherin/Fc Chimera, CF (R&D Systems Cat#861-PC) (human) (UniProt P22223); assay: as above
[35] = target: rHuman CD44/Fc Chimera, CF (R&D Systems Cat#3660-CD) (human) (UniProt P16070); assay: ECL (MSD multi-spot), antigen spotted on plate; Fab 8 nM; blank 1188
[36] = target: rHuman Erythropoietin R/Fc Chimera, CF (R&D Systems Cat#963-ER) (human) (UniProt P19235); assay: as above
[37] = target: rHuman Notch-1/Fc Chimera, CF (R&D Systems Cat#3647-TK) (human) (UniProt P46531); assay: as above
[38] = target: rHuman ErbB2/Fc Chimera, CF (R&D Systems Cat#1129-ER) (human) (UniProt P04626); assay: as above
[39] = target: rHuman P-Cadherin/Fc Chimera, CF (R&D Systems Cat#861-PC) (human) (UniProt P22223); assay: as above
[40] = target: rHuman CD44/Fc Chimera, CF (R&D Systems Cat#3660-CD) (human) (UniProt P16070); assay: ECL (MSD multi-spot), antigen spotted on plate; Fab 200 nM; blank 1659
[41] = target: rHuman Erythropoietin R/Fc Chimera, CF (R&D Systems Cat#963-ER) (human) (UniProt P19235); assay: as above
[42] = target: rHuman Notch-1/Fc Chimera, CF (R&D Systems Cat#3647-TK) (human) (UniProt P46531); assay: as above
[43] = target: rHuman ErbB2/Fc Chimera, CF (R&D Systems Cat#1129-ER) (human) (UniProt P04626); assay: as above
[44] = target: rHuman P-Cadherin/Fc Chimera, CF (R&D Systems Cat#861-PC) (human) (UniProt P22223); assay: as above
[45] = target: rHuman CD44/Fc Chimera, CF (R&D Systems Cat#3660-CD) (human) (UniProt P16070); assay: ECL (MSD multi-spot), antigen spotted on plate; Fab 40 nM; blank 1229
[46] = target: rHuman Erythropoietin R/Fc Chimera, CF (R&D Systems Cat#963-ER) (human) (UniProt P19235); assay: as above
[47] = target: rHuman Notch-1/Fc Chimera, CF (R&D Systems Cat#3647-TK) (human) (UniProt P46531); assay: as above
[48] = target: rHuman ErbB2/Fc Chimera, CF (R&D Systems Cat#1129-ER) (human) (UniProt P04626); assay: as above
[49] = target: rHuman P-Cadherin/Fc Chimera, CF (R&D Systems Cat#861-PC) (human) (UniProt P22223); assay: as above
[50] = target: rHuman CD44/Fc Chimera, CF (R&D Systems Cat#3660-CD) (human) (UniProt P16070); assay: ECL (MSD multi-spot), antigen spotted on plate; Fab […]; blank 428
[51] = target: rHuman Erythropoietin R/Fc Chimera, CF (R&D Systems Cat#963-ER) (human) (UniProt P19235); assay: as above
[52] = target: rHuman Notch-1/Fc Chimera, CF (R&D Systems Cat#3647-TK) (human) (UniProt P46531); assay: as above
[53] = target: rHuman ErbB2/Fc Chimera, CF (R&D Systems Cat#1129-ER) (human) (UniProt P04626); assay: as above
[54] = target: rHuman P-Cadherin/Fc Chimera, CF (R&D Systems Cat#861-PC) (human) (UniProt P22223); assay: as above

Chain of rHuman Erythropoietin R/Fc Chimera, CF (R&D Systems Cat#963-ER) (human) (P19235 25-250, change not shown): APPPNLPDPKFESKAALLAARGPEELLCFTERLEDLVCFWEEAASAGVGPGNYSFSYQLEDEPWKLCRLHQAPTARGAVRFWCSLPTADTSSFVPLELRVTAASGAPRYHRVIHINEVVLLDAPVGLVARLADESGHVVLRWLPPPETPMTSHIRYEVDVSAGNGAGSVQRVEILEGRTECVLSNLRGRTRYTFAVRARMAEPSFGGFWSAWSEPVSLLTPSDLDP

ECL signal [1]: 803 ECL signal
ECL signal [2]: 569 ECL signal
ECL signal [3]: 655 ECL signal
ECL signal [4]: 3110 ECL signal
ECL signal [5]: 1920 ECL signal
ECL signal [6]: 2440 ECL signal
ECL signal [7]: 444 ECL signal
ECL signal [8]: 343 ECL signal
ECL signal [9]: 478 ECL signal
ECL signal [10]: 357 ECL signal
ECL signal [11]: 234 ECL signal
ECL signal [12]: 277 ECL signal
Substance: Fab VH1-46_IGHD6-13*01_IGHJ4*01 & O1_IGKJ1*01

ECL signal [13]: 402 ECL signal
ECL signal [14]: 4390 ECL signal
ECL signal [15]: 313 ECL signal
ECL signal [16]: 2700 ECL signal
ECL signal [17]: 2480 ECL signal
ECL signal [18]: 1640 ECL signal
ECL signal [19]: 735 ECL signal
ECL signal [20]: 744 ECL signal
ECL signal [21]: 749 ECL signal
ECL signal [22]: 339 ECL signal
ECL signal [23]: 317 ECL signal
ECL signal [24]: 434 ECL signal
Substance: Fab VH1-46_IGHD3-10*01_IGHJ4*01 & O1_IGKJ1*01

ECL signal [25]: 1020
ECL signal [26]: 1120
ECL signal [27]: 1170
ECL signal [28]: 1170
ECL signal [29]: 1140
ECL signal [30]: 4730
ECL signal [31]: 8290
ECL signal [32]: 8060
ECL signal [33]: 7420
ECL signal [34]: 5630
ECL signal [35]: 1490
ECL signal [36]: 1980
ECL signal [37]: 2200
ECL signal [38]: 1900
ECL signal [39]: 1920
ECL signal [40]: 3190
ECL signal [41]: 4000
ECL signal [42]: 5700
ECL signal [43]: 4040
ECL signal [44]: 3990
ECL signal [45]: 2680
ECL signal [46]: 3510
ECL signal [47]: 3480
ECL signal [48]: 2230
ECL signal [49]: 2600
ECL signal [50]: 684
ECL signal [51]: 739
ECL signal [52]: 739
ECL signal [53]: 766
ECL signal [54]: 649
Substance: Fab VH1-46_IGHD6-6*01_IGHJ1*01_S104A & L6_IGKJ1*01
